Results as given in patent US20260098075A1.
Numbering of substitutions follows the chain as printed.

B1: R11 CAR against ROR1 with Spacer 5 (protein)
chain: QSVKESEGDLVTPAGNLTLTCTASGSDINDYPISWVRQAPGKGLEWIGFINSGGSTWYASWVKGRFTISRTSTTVDLKMTSLTTDDTATYFCARGYSTYYGDFNIWGPGTLVTISSGGGGSGGGGSGGGGSELVMTQTPSSTSGAVGGTVTINCQASQSIDSNLAWFQQKPGQPPTLLIYRASNLASGVPSRFSGSRSGTEYTLTISGVQREDAATYYCLGGVGNVSYRTSFGGGTEVVVKTGGGGSGCPRCPEPKSCDTPPPCPRCPEPKSCDTPPPCPRCPEPKSCDTPPPCPRCPAPMFWVLVVVGGVLACYSLLVTVAFIIFWVKRGRKKLLYIFKQPFMRPVQTTQEEDGCSCRFPEEEEGGCELRVKFSRSADAPAYQQGQNQLYNELNLGRREEYDVLDKRRGRDPEMGGKPRRKNPQEGLYNELQKDKMAEAYSEIGMKGERRRGKGHDGLYQGLSTATKDTYDALHMQALPPR
B2: R11 CAR against ROR1 with Spacer 6 (protein)
chain: QSVKESEGDLVTPAGNLTLTCTASGSDINDYPISWVRQAPGKGLEWIGFINSGGSTWYASWVKGRFTISRTSTTVDLKMTSLTTDDTATYFCARGYSTYYGDFNIWGPGTLVTISSGGGGSGGGGSGGGGSELVMTQTPSSTSGAVGGTVTINCQASQSIDSNLAWFQQKPGQPPTLLIYRASNLASGVPSRFSGSRSGTEYTLTISGVQREDAATYYCLGGVGNVSYRTSFGGGTEVVVKTGGGGSGEPKSCDTPPPCPRCPEPKSCDTPPPCPRCPEPKSCDTPPPCPRCPAPMFWVLVVVGGVLACYSLLVTVAFIIFWVKRGRKKLLYIFKQPFMRPVQTTQEEDGCSCRFPEEEEGGCELRVKFSRSADAPAYQQGQNQLYNELNLGRREEYDVLDKRRGRDPEMGGKPRRKNPQEGLYNELQKDKMAEAYSEIGMKGERRRGKGHDGLYQGLSTATKDTYDALHMQALPPR
B3: R11 CAR against ROR1 with Spacer 4 (protein)
chain: QSVKESEGDLVTPAGNLTLTCTASGSDINDYPISWVRQAPGKGLEWIGFINSGGSTWYASWVKGRFTISRTSTTVDLKMTSLTTDDTATYFCARGYSTYYGDFNIWGPGTLVTISSGGGGSGGGGSGGGGSELVMTQTPSSTSGAVGGTVTINCQASQSIDSNLAWFQQKPGQPPTLLIYRASNLASGVPSRFSGSRSGTEYTLTISGVQREDAATYYCLGGVGNVSYRTSFGGGTEVVVKTGGGGSGELKTPLGDTTHTCPRCPEPKSCDTPPPCPRCPEPKSCDTPPPCPRCPEPKSCDTPPPCPRCPAPMFWVLVVVGGVLACYSLLVTVAFIIFWVKRGRKKLLYIFKQPFMRPVQTTQEEDGCSCRFPEEEEGGCELRVKFSRSADAPAYQQGQNQLYNELNLGRREEYDVLDKRRGRDPEMGGKPRRKNPQEGLYNELQKDKMAEAYSEIGMKGERRRGKGHDGLYQGLSTATKDTYDALHMQALPPR
B4: 2A2 CAR against ROR1 with Spacer 13 (protein)
chain: QVQLQQSGAELVRPGASVTLSCKASGYTFSDYEMHWVIQTPVHGLEWIGAIDPETGGTAYNQKFKGKAILTADKSSSTAYMELRSLTSEDSAVYYCTGYYDYDSFTYWGQGTLVTVSAGGGGSGGGGSGGGGSDIVMTQSQKIMSTTVGDRVSITCKASQNVDAAVAWYQQKPGQSPKLLIYSASNRYTGVPDRFTGSGSGTDFTLTISNMQSEDLADYFCQQYDIYPYTFGGGTKLEIKTGGGGSGPCPRCPAPMFWVLVVVGGVLACYSLLVTVAFIIFWVKRGRKKLLYIFKQPFMRPVQTTQEEDGCSCRFPEEEEGGCELRVKFSRSADAPAYQQGQNQLYNELNLGRREEYDVLDKRRGRDPEMGGKPRRKNPQEGLYNELQKDKMAEAYSEIGMKGERRRGKGHDGLYQGLSTATKDTYDALHMQALPPR
B5: 2A2 CAR against ROR1 with Spacer 21 (protein)
chain: QVQLQQSGAELVRPGASVTLSCKASGYTFSDYEMHWVIQTPVHGLEWIGAIDPETGGTAYNQKFKGKAILTADKSSSTAYMELRSLTSEDSAVYYCTGYYDYDSFTYWGQGTLVTVSAGGGGSGGGGSGGGGSDIVMTQSQKIMSTTVGDRVSITCKASQNVDAAVAWYQQKPGQSPKLLIYSASNRYTGVPDRFTGSGSGTDFTLTISNMQSEDLADYFCQQYDIYPYTFGGGTKLEIKTGGGGSGVPCPVPPMFWVLVVVGGVLACYSLLVTVAFIIFWVKRGRKKLLYIFKQPFMRPVQTTQEEDGCSCRFPEEEEGGCELRVKFSRSADAPAYQQGQNQLYNELNLGRREEYDVLDKRRGRDPEMGGKPRRKNPQEGLYNELQKDKMAEAYSEIGMKGERRRGKGHDGLYQGLSTATKDTYDALHMQALPPR
B6: 2A2 CAR against ROR1 with Spacer 28 (protein)
chain: QVQLQQSGAELVRPGASVTLSCKASGYTFSDYEMHWVIQTPVHGLEWIGAIDPETGGTAYNQKFKGKAILTADKSSSTAYMELRSLTSEDSAVYYCTGYYDYDSFTYWGQGTLVTVSAGGGGSGGGGSGGGGSDIVMTQSQKIMSTTVGDRVSITCKASQNVDAAVAWYQQKPGQSPKLLIYSASNRYTGVPDRFTGSGSGTDFTLTISNMQSEDLADYFCQQYDIYPYTFGGGTKLEIKTGGGGSGSVCSRDFTPPMFWVLVVVGGVLACYSLLVTVAFIIFWVKRGRKKLLYIFKQPFMRPVQTTQEEDGCSCRFPEEEEGGCELRVKFSRSADAPAYQQGQNQLYNELNLGRREEYDVLDKRRGRDPEMGGKPRRKNPQEGLYNELQKDKMAEAYSEIGMKGERRRGKGHDGLYQGLSTATKDTYDALHMQALPPR
B7: R12 CAR with Spacer 1 (ROR1-specific R12 scFv, Gly-Ser linker, Spacer 1, CD28-derived transmembrane domain, 4-1BB costimulatory domain, CD3 zeta signaling … (protein)
chain: QEQLVESGGRLVTPGGSLTLSCKASGFDFSAYYMSWVRQAPGKGLEWIATIYPSSGKTYYATWVNGRFTISSDNAQNTVDLQMNSLTAADRATYFCARDSYADDGALFNIWGPGTLVTISSGGGGSGGGGSGGGGSELVLTQSPSVSAALGSPAKITCTLSSAHKTDTIDWYQQLQGEAPRYLMQVQSDGSYTKRPGVPDRFSGSSSGADRYLIIPSVQADDEADYYCGADYIGGYVFGGGTQLTVTGGGGSGKPCPPCKCPMFWVLVVVGGVLACYSLLVTVAFIIFWVKRGRKKLLYIFKQPFMRPVQTTQEEDGCSCRFPEEEEGGCELRVKFSRSADAPAYQQGQNQLYNELNLGRREEYDVLDKRRGRDPEMGGKPRRKNPQEGLYNELQKDKMAEAYSEIGMKGERRRGKGHDGLYQGLSTATKDTYDALHMQALPPR
B8: R12 CAR with Spacer 15 (protein)
chain: QEQLVESGGRLVTPGGSLTLSCKASGFDFSAYYMSWVRQAPGKGLEWIATIYPSSGKTYYATWVNGRFTISSDNAQNTVDLQMNSLTAADRATYFCARDSYADDGALFNIWGPGTLVTISSGGGGSGGGGSGGGGSELVLTQSPSVSAALGSPAKITCTLSSAHKTDTIDWYQQLQGEAPRYLMQVQSDGSYTKRPGVPDRFSGSSSGADRYLIIPSVQADDEADYYCGADYIGGYVFGGGTQLTVTGGGGSGPPKPKDTMFWVLVVVGGVLACYSLLVTVAFIIFWVKRGRKKLLYIFKQPFMRPVQTTQEEDGCSCRFPEEEEGGCELRVKFSRSADAPAYQQGQNQLYNELNLGRREEYDVLDKRRGRDPEMGGKPRRKNPQEGLYNELQKDKMAEAYSEIGMKGERRRGKGHDGLYQGLSTATKDTYDALHMQALPPR
B9: R12 CAR with Spacer 21 (protein)
chain: B8 chain with P254V, K256C, K258V, D259P, T260P

target: human ROR1 (tyrosine-protein kinase transmembrane receptor ROR1) (human), Q01973; experiment: cell-based or functional assay
Sequence (Q01973 30-937): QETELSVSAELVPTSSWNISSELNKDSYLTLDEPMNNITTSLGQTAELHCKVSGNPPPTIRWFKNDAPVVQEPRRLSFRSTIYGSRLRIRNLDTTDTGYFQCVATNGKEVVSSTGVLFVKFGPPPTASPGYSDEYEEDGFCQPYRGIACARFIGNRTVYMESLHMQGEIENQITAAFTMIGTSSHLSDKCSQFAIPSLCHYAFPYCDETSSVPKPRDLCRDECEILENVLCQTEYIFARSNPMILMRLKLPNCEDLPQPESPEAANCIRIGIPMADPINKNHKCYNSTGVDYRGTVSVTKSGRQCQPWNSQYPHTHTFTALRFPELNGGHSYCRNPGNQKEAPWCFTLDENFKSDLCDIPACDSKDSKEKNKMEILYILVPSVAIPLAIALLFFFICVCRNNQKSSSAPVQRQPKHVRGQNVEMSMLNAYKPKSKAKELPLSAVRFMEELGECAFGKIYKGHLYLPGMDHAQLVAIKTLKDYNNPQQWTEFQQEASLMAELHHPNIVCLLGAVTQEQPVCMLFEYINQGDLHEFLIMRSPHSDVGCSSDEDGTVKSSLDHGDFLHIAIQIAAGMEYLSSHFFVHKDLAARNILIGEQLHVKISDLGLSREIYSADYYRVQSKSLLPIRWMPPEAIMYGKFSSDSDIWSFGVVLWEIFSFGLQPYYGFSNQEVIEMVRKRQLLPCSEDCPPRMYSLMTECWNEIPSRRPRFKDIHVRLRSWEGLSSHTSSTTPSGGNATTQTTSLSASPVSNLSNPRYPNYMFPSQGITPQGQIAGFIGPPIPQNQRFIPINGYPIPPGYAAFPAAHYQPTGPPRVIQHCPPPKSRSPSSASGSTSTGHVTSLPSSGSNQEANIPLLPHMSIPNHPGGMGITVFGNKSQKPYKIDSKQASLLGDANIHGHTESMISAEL

| Binder | A549 IFNg, donor 5018 | A549 IFNg, donor 7811 | A549 IL-2, donor 5018 | A549 IL-2, donor 7811 | A549 normalized AUC, donor 5018 | A549 normalized AUC, donor 7811 | H1975 IFNg, donor 5018 | H1975 IFNg, donor 7811 | H1975 IL-2, donor 5018 | H1975 IL-2, donor 7811 |
| --- | --- | --- | --- | --- | --- | --- | --- | --- | --- | --- |
| B1 | 60900 | 83600 | 10 | 87 | 55.8 | 48.8 | 17300 | 32400 | 2 | 16 |
| B2 | 46300 | 86700 | 10 | 89 | 58.4 | 51.4 | 7170 | 11900 | 1 | 2 |
| B3 | 37000 | 46200 | 5 | 26 | 59.1 | 54.6 | 9130 | 15900 | 1 | 4 |
| B4 | 38900 |  | 3 |  | 61 |  | 54300 |  | 14 |  |
| B5 | 41300 |  | 3 |  | 58.9 |  | 61900 |  | 13 |  |
| B6 | 34200 |  | 2 |  | 61 |  | 58100 |  | 8 |  |
| B7 | 4350 |  | 0 |  | 80.9 |  | 4850 |  | 0 |  |
| B8 | 7610 |  | 9 |  | 81.2 |  | 4320 |  | 10 |  |
| B9 | 5000 |  | 8 |  | 85 |  | 2650 |  | 7 |  |

same assay, conditions: not given

| Binder | H1975 normalized AUC, donor 5018 | H1975 normalized AUC, donor 7811 | A549 IFNg, donor 2089 | A549 IL-2, donor 2089 | A549 normalized AUC, donor 2089 | H1975 IFNg, donor 2089 | H1975 IL-2, donor 2089 | H1975 normalized AUC, donor 2089 | A549 IFNg, donor 2735 | A549 IL-2, donor 2735 |
| --- | --- | --- | --- | --- | --- | --- | --- | --- | --- | --- |
| B1 | 86.7 | 69.6 |  |  |  |  |  |  |  |  |
| B2 | 114 | 96.5 |  |  |  |  |  |  |  |  |
| B3 | 94.5 | 83.1 |  |  |  |  |  |  |  |  |
| B4 | 43.2 |  | 46600 | 1 | 42 | 67100 | 1 | 37.9 |  |  |
| B5 | 43.2 |  | 55400 | 1 | 38 | 78000 | 2 | 39.4 |  |  |
| B6 | 44.3 |  | 49900 | 1 | 43.6 | 78300 | 1 | 39.5 |  |  |
| B7 | 68.8 |  |  |  |  |  |  |  | 8940 | 4 |
| B8 | 75 |  |  |  |  |  |  |  | 13800 | 8 |
| B9 | 77.4 |  |  |  |  |  |  |  | 14100 | 7 |

same assay, conditions: not given

| Binder | A549 normalized AUC, donor 2735 | H1975 IFNg, donor 2735 | H1975 IL-2, donor 2735 | H1975 normalized AUC, donor 2735 |
| --- | --- | --- | --- | --- |
| B7 | 67.6 | 15700 | 10 | 67.6 |
| B8 | 64 | 16900 | 17 | 63 |
| B9 | 66.3 | 23200 | 26 | 61.5 |
